Measured values as given in publication PMC9428257, “Developing high-affinity decoy receptors to treat multiple myeloma and diffuse large B cell lymphoma” (The Journal of Experimental Medicine, 2022).

Target: T1, human BAFF (B cell activating factor) (human, UniProt Q9Y275 134-285)
T1 construct: also called hBAFF
Assay: flow cytometry on cells; yeast-displayed sBCMA (wild type or mutant clone) incubated with increasing concentrations of soluble APRIL or BAFF; same reagents and protocols as the library sorts (PBS with 0.1% BSA, room temperature); KD from a one site-specific binding fit in GraphPad Prism
Conditions: one partner purified

- Kd: 9 pM
B1: yeast-displayed mutant sBCMA V3 (S16G, H19Y, T36A, N53D) (domain or fragment, human, UniProt Q02223 1-54, looked up)
chain: MLQMAGQCSQNEYFDGLLYACIPCQLRCSSNTPPLACQRYCNASVTNSVKGTDA
notes: B cell maturation antigen (BCMA), human, extracellular domain, amino acids Met1-Ala54, with the four V3 mutations
